The data set has as its target T1, human POT1 (human, UniProt Q9NUX5 1-634).
T1 sequence: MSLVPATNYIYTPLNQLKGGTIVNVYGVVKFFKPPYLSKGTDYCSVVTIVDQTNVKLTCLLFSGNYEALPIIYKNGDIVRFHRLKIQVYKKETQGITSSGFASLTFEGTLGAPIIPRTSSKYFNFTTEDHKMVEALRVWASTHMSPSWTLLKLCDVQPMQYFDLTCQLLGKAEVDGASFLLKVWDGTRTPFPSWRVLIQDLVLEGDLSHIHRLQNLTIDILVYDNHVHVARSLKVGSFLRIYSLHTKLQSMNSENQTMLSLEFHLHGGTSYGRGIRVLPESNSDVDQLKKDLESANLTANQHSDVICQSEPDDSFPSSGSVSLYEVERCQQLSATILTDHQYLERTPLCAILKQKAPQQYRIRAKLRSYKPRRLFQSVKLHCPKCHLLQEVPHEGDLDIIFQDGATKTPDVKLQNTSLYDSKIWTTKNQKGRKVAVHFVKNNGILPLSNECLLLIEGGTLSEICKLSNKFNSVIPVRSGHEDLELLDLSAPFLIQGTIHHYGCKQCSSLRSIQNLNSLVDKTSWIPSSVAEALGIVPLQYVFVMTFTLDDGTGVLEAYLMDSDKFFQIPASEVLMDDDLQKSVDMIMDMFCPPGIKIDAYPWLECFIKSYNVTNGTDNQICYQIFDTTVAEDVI
Put plainly: EMSA. On the technique in general: A gel shift assay detects complexes by their altered migration in electrophoresis.

TTTTTTTTTTTTTTTTTTTTTTTTTTTTTTTTTT (ssDNA) [dT34]: the binding result is “no binding”.

The values above are taken from PMC3222871.
